Assay results published in publication PMC11342776, “Protein kinase Hsl1 phosphorylates Pah1 to inhibit phosphatidate phosphatase activity and regulate lipid synthesis in Saccharomyces cerevisiae” (The Journal of Biological Chemistry, 2024).

Substrate: Nc1ncnc2c1ncn2[C@@H]1O[C@H](COP(=O)(O)OP(=O)(O)OP(=O)(O)O)[C@@H](O)[C@H]1O
Experiment: purified protein
Format: biochemical, Saccharomyces cerevisiae
Details: 500 nM Pah1 as protein substrate, 10 mM MgCl2, 2 mM DTT, pH 7.5, 30 °C, labelled compound

B1: Hsl1 (Saccharomyces cerevisiae S288C) (protein)
chain: MTGHVSKTSHVPKGRPSSLAKKAAKRAMAKVNSNPKRASGHLERVVQSVNDATKRLSQPDSTVSVATKSSKRKSRDTVGPWKLGKTLGKGSSGRVRLAKNMETGQLAAIKIVPKKKAFVHCSNNGTVPNSYSSSMVTSNVSSPSIASREHSNHSQTNPYGIEREIVIMKLISHTNVMALFEVWENKSELYLVLEYVDGGELFDYLVSKGKLPEREAIHYFKQIVEGVSYCHSFNICHRDLKPENLLLDKKNRRIKIADFGMAALELPNKLLKTSCGSPHYASPEIVMGRPYHGGPSDVWSCGIVLFALLTGHLPFNDDNIKKLLLKVQSGKYQMPSNLSSEARDLISKILVIDPEKRITTQEILKHPLIKKYDDLPVNKVLRKMRKDNMARGKSNSDLHLLNNVSPSIVTLHSKGEIDESILRSLQILWHGVSRELITAKLLQKPMSEEKLFYSLLLQYKQRHSISLSSSSENKKSATESSVNEPRIEYASKTANNTGLRSENNDVKTLHSLEIHSEDTSTVNQNNAITGVNTEINAPVLAQKSQFSINTLSQPESDKAEAEAVTLPPAIPIFNASSSRIFRNSYTSISSRSRRSLRLSNSRLSLSASTSRETVHDNEMPLPQLPKSPSRYSLSRRAIHASPSTKSIHKSLSRKNIAATVAARRTLQNSASKRSLYSLQSISKRSLNLNDLLVFDDPLPSKKPASENVNKSEPHSLESDSDFEILCDQILFGNALDRILEEEEDNEKERDTQRQRQNDTKSSADTFTISGVSTNKENEGPEYPTKIEKNQFNMSYKPSENMSGLSSFPIFEKENTLSSSYLEEQKPKRAALSDITNSFNKMNKQEGMRIEKKIQREQLQKKNDRPSPLKPIQHQELRVNSLPNDQGKPSLSLDPRRNISQPVNSKVESLLQGLKFKKEPASHWTHERGSLFMSEHVEDEKPVKASDVSIESSYVPLTTVATSSRDPSVLAESSTIQKPMLSLPSSFLNTSMTFKNLSQILADDGDDKHLSVPQNQSRSVAMSHPLRKQSAKISLTPRSNLNANLSVKRNQGSPGSYLSNDLDGISDMTFAMEIPTNTFTAQAIQLMNNDTDNNKINTSPKASSFTKEKVIKSAAYISKEKEPDNSDTNYIPDYTIPNTYDEKAINIFEDAPSDEGSLNTSSSESDSRASVHRKAVSIDTMATTNVLTPATNVRVSLYWNNNSSGIPRETTEEILSKLRLSPENPSNTHMQKRFSSTRGSRDSNALGISQSLQSMFKDLEEDQDGHTSQADILESSMSYSKRRPSEESVNPKQRVTMLFDEEEEESKKVGGGKIKEEHTKLDNKISEESSQLVLPVVEKKENANNTENNYSKIPKPSTIKVTKDTAMESNTQTHTKKPILKSVQNVEVEEAPSSDKKNWFVKLFQNFSSHNNATKASKNHVTNISFDDAHMLTLNEFNKNSIDYQLKNLDHKFGRKVVEYDCKFVKGNFKFKIKITSTPNASTVITVKKRSKHSNTSSNKAFEKFNDDVERVIRNAGRS
notes: full-length with C-terminal TAP tag kept (chromosomal HSL1-TAP); IgG-Sepharose purified from S. cerevisiae, endogenously phosphorylated; ~190 kDa on gel
Question: B1 was tested. Which Km did it give?
Answer: 31 µM
